Reference: PMC9800579, “Interplay of membrane crosslinking and curvature induction by annexins” (Scientific Reports, 2022)

Target: the molecule itself
Assay: atomic force microscopy; alternating contact mode on DOPC/DOPS (1:1) supported lipid bilayers on mica, 10 mM TRIS pH 7.4, 140 mM NaCl, 2 mM Ca2+; 40 nM ANXA4 added with 40 nM ANXA1-GFP or ANXA2-GFP; 250 nm x 250 nm scans of the lower (ANXA4) domains, Fourier transform

B1: annexin A4 (natural protein, UniProt P09525 1-319, looked up)
chain: MATKGGTVKAASGFNAMEDAQTLRKAMKGLGTDEDAIISVLAYRNTAQRQEIRTAYKSTIGRDLIDDLKSELSGNFEQVIVGMMTPTVLYDVQELRRAMKGAGTDEGCLIEILASRTPEEIRRISQTYQQQYGRSLEDDIRSDTSFMFQRVLVSLSAGGRDEGNYLDDALVRQDAQDLYEAGEKKWGTDEVKFLTVLCSRNRNHLLHVFDEYKRISQKDIEQSIKSETSGSFEDALLAIVKCMRNKSAYFAEKLYKSMKGLGTDDNTLIRVMVSRAEIDMLDIRAHFKRLYGKSLYSFIKGDTSGDYRKVLLVLCGGDD
notes: annexin A4 (ANXA4), unlabelled recombinant protein from a PCR-amplified cDNA in pETM11-SUMO3; the introduction gives 320 amino acids for ANXA4 (cited); also called ANXA4; recombinant ANXA4; source: E. coli BL21 (DE3), purified (Ni-NTA IMAC, Superdex 200 SEC); not shown: 6xHis, N-terminal, cleaved; SUMO3 domain, N-terminal, cleaved
  stoichiometry N: 3
